In the DeepSol protein solubility set:

Assay: soluble on expression in E. coli; label from the status in PepcDB or PDB records

| Sequence | soluble on expression in E. coli |
| --- | --- |
| MGSDKIHHHHHHVDQVNAYRNSAHLYDLDQRELVTADIPFYLEYAGSFGGGILELGCGTGRIAIPLAEAGHDITALDLSENMLAAFSAKLTNVAAGTKKKLALVQGNMADFSLRKTFDMIIAPFRAFQALTRAEDINGCLACMREHLNDGGIVIINVFRPFGTLDESWCYPETVQWERWDDATGSKVVKKHWGQRIDVENQIIYPGFAYEVMASNGVVERFADNLALKYYYYEQLTTLLQDAGFRIKEEYGWYDKSPIENGRELIFVCTR | not soluble |
| MGSDKIHHHHHHVENWDEVRTAYQVARLGTVSGAADVLGVHHATVIRHIDAIEARLGVKLFQRHARGYTATEAGLDLLRVAQATDDQFSQLVGRLKGQGDEVSGELVVTSLSSMAPMLAPALAEFQQLHPDLVIRYLTGDRLFRLEYGEAHVALRAGAAPEQPDNVVQPFVAQRLALYASREYVERHGMLKGQDDMVNHRFIASDNENTRAPFERWLRSTIPAENIVFRCSDAVAGHQAIRAGAGIGFVSLWEAASSPDLVMMMDPHDEWSGKIWLVTHVDLHRTNKVQSFVRFLKEHAKSWPQ | not soluble |
| MGSDKIHHHHHHVIALLKAYKFRLYPTKPQQEYFVKTFGCVRFVYNKMLEERIQLYEDSKLNPDAKQKLPTPAKYKPEFPFLKEVDSLSLANAQMDLNQAYQNFFRDQSVGFPKFKSKHNDRASYTTNNLKGSIRIEDRKVKLPKIGFVKLKQHRPFDGVIKSATVSMTKTRKFFISILVDQAEAQWVPAQNKVGIDLGLEHFAILTNDEWVSEKVANPRFLRKSEEKIKKAQRALSRKKIGSKNREKARIILAKKHEKIAHQRQDFLHKLSKRMVDDNQVIVVETLKSKNMMKNHKIAKSIGDVSWYGFVRQLEYKCAFYGRTLIKADQWYASTQICSSCGVKGEKKTIDVREWMCTCGAHHDRDINASINLLLLAD | not soluble |
| MGSDKIHHHHHHVKIAIASDHAAFELKEKVKNYLLGKGIEVEDHGTYSEESVDYPDYAKKVVQSILSNEADFGILLCGTGLGMSIAANRYRGIRAALCLFPDMARLARSHNNANILVLPGRLIGAELAFWIVDTFLSTPFDGGRHERRIRKIDEV | soluble |
| MGSDKIHHHHHHVLKKALRQHFRQSCTEQDLHRWFDPLDITLADEKRLEVRFPHRFFAEWFSTQVQGRFESELNTFMGEGTTVEYTTGCCPVLSSSPLPPAAVSKKLSAPFGREYTFETFISNKRNFFPVASARELARQEEEIRYNPFVLCGPAGSGKTHLLRAIANELSKTVYKKHIFISTIDDLGTLFSNNGSGDPAQVRQQLSACHYLLLDDLHRLREQPQLQDELTVLFNSFYDRQKQMVFTCPGKLSELDFLETGLRSRLEWGLIVTMKPPDLEILVTFIQRQCKLHKLQLAKEHVFTLAQRFRDFRHLQGVLNRLTAYRDLVNRTLADTDFEQVLSHTEAGAGRPLTADRIIALCAGRFSLPPKDVTGDKRHQKVVLARQVAMYLCRELMGSSYPVLGRTFGGKDHSTAMYAVKKIKKMIDSDKTTRQLVTELKKQCLSGAE | not soluble |
| MGSDKIHHHHHHVLNLGHKLLQYEAQKLISFHTPGHKGKAEFFTDLHFPDQDLTELPGLDMLHSPAGVIAQAQARAAAVYQSDASFYLINGATVGNQGMFMALAGTGKRGKDLQLPKVLVERQSHRSVFSALVLSGCEPEYIPSVVHPEFGLPLGLKSIAEVDLGEFLGVHLTYPGYYGTLPDLAMIAAQRDRQAVQVSILVDQAHGSHYLSPLFPKGALAYGADLVLCSTHKTLSALTQAAMLHVQGSRIPLSALKEALELLQSSSPSYLLMASLERAVEHALESRRWELLHEAVQELHHRVGGSLRILNPQDVGTYGIAGLDWTKIMINTQRLGVAAPRCVEHLRKSYGIDPELWDDKNILFLLGIGNTPEEVEILTKGLLSLASLNKDVVASPEEMVFEIPLPPVRLTPRQAYFARKRKIPLAESVGHIVGESISPYPPGIPWIVMGEEMTPEILELLTRHKGRWQGWEDAGQGVWIIEEV | not soluble |
| MGSDKIHHHHHHVLNNLGQTRYVVPRPHPQLVTTRTLVMQRIDGFNFDDVTGMQDAGIDTEDVIRTGMVAFMEGALIHGIFHGDLHGGNLFVLPDGRTALLDFGITARLDDDRRRAFLRLMMTATTNDLTGQMAALRDLGALPLDTDLQAVIRDLRLDEAPIDPTTLSGEEMVAEVQRVVKALLSYGARLPKELMLYVKNMVFLDGAIARLAPDLDLLAEVANISMMFASRHGERLMTEIGIDAANMQVNLDSVKAGFGVDLSTDRLTYRELQERRELIQKRMRSHVERTRRSAN | not soluble |
| MGSDKIHHHHHHVMARIHNRDWCLACTSSLKELPRHVYFRAYSLKGGTCVQGHEHVWWQFLFARNGLMQVQAGATTLTLPPDYGVWIPPGCVHTLWIGEEVELESLYIEPTAVAIQDQEPRVVMVDEFVRAFIHHGCTSIPVKYDEDGADGRKVKVLLDSLQSLPDAPFNLPFPTEPRLLEVCLTIQSAPHLAHTLDESAGLARMSSRTFTRHFLRATGLPYHTWRQRMRLLGSLEMLRSDITVTEVALTIGYSTPSAFTHAFKQLFGKSPSRFTRPEPK | not soluble |
| MGSDKIHHHHHHVQDKNFDKLAQKFAKNIYGTPKGDIRAAVLWRDLAPALAKLGDRKLRVLDAGGGFGYFSQKLARLGHEVVLCDISAEMLAQAQEQIDASPEPLAIQLIHAPIQALSVEQHGYFDIILCHAVVEWLTDAKPTMAGLLTMLKPAGLFSLMFYNKEAMRFHALVSGNFDYVAADLKVKKKVQLTPTHPLYIQEVKEWFSDWQMSLISQSGVRVIHDYLKKSQPVDFDYQKLLQMELEYSQREPYISLGRYVHFLGQSPAV | not soluble |
| MGSDKIHHHHHHVSLIQEYKKQQNWRDWERYLESIPYSGEDTVIDLGCSVGDVSQLFSLRVKNVIGIDVNQDFIDICESQKSVNQTFICSDFLSLDSQLIESTNGIWSSFSLSYLRNPLDFLIYLNASMKQGGWIALLDISCFISGNLAKKSQYYEKVLKFELESYKSGIYDFDFGSKMLSMLQNAGFDIVYLDNDVTDPELNFTGAASAEIIHGWAARLNRMNRLKDEIGAEYPDFCNELLANLSSDTHEKRQNVRFIVARKPITSVNKATDSCAGVHSQ | not soluble |
| MGSDKIHHHHHHVSNGAATRVRRSREKILGAAESVFLQHGFLGTNMDVIADTAGVSKQTVYAHFKSKEALFIDVVEAMTGGAAEEIGEDIEDVFGDRKAEDYLLEVAIDQLTVVLTPRLMQLRRMVIGEVERFPELGRSLYVNGPIRSITRLTRACAHYTRIGELITPDPQAAATQFNWIVMGAPTNAAMLLGDAGIPTSAQLQAHATEAVRIFLCAYGAKQMHPR | not soluble |
| MGSDKIHHHHHHVSQPTSSLVGKSRASIYRDLVLSAQGVRFGKTAGKDVDVIKYLFALLILLAFSAKGYHPKEAHEPLTTLAVDAMAQCGINLSESTRLQLMQGNLAMDEGAGKLPKELMNTSFAKAVFPMTKRIHNWHFYHPDKTADAQRLAGKTDMSMARLWQAAQAGLEQAPAEHKAYYLGAIIHLIQDVTVPAHAVPVYHGPKIIAWQREFAPLVNYLGFGFRGIFVIHDPVDDWPVNSTGAEQPIAAIPCPELHAASSNLSANFDALRTRVARQTLTALDNPIPGCAAPWRLFWREDLGHRYFAGYTQGIKPFGRANSLSGEGISIDGRPCEPDYQGFVETRHRAAIEATMAALQLSQLGVVSPVPTEAQ | not soluble |
| MGSDKIHHHHHHVTEPIRLYYWPAPNFGDALSHLVVEHVSGRPVVNARPKQAELFALGSLMHVISRHWTERVRGEGPLLWGTGLLNPFYRKEFLENVRVRLLRGPISAAFLRLKMTEFGDPGLLADEAVGPVEDRHDRVAIVPHHSQMDDPRFVEMVEADPALHLIDVRLDPVTVCREIAASAHVFSASLHGLIVADAYGVANTWMDPEAQGRLKYHDYAAAIGRDMIAPVEIRDVPKAARTARDRPFPYADGIARCRESLHRHFPAELRAPLRATAS | not soluble |
| MGSDKIHHHHHHVTLDQLLMFRTVAEAGSLKAASNKLHKTQPAISQSIKQLESQLDLILFNREGYRLAITEQGRKLLQHTLRVLNEAQEMKQVAKHLAKGNEASITLAFEASFNLARILPILELTQNEFPYTQIILKQEFLTGALEALNQDKAEIIISAGGIEPIRSSHLELAYLFSGSLLDVAAPRLLSRYPNLSHVRELVNEYQIVIQDTGTGTANIEFGVQAGQRRWYVNDFYTKKMLIQSGMGWGKLPHYMIEDSLKQGALIALDLRERQNNIQLDYYVMRKPHSPLGPVAQALWQKLIAFSLS | not soluble |
| MGSDKIHHHHHHWIAFAGNMNTTIDNESDELKAIDYKDLEVKEKLGEGASGEVYRAMYGGSDVALKLFRGAATSDGLPEDEIKVMQRLGPDENSVSILGSVVGAPEGQLAALLPLVPPSFTILGNPPTFDSCTRDTYPKDKTFSLRTAIEILEAIARVCAHLHSRGLSHGDLYAHNILVQIGVDGEPTRTKLSDYGAASFSSVLKPHQVALLERIEVRAFGALAEELMDRLEEADAEGVAHRLSSVIVKSMRADVASRPSFSEIHQEMVAFLKEV | not soluble |
| MGSKVAGKKKTQNDNKLDNENGSQQRENINTKTLLKGNLKISNYKYLEVIQLEHAVTKLVESYNKIIELSPNLVAYNEAVNNQDRVPVQILPSLSRYQLKLAAELKTLHDLKKDAILTEITDYENEFDTEQKQPILQEISKADMEKLEKLEQVKREKREKIDVNVYENLNEKEDEEEDEGEDSYDPTKAGDIVKATKWPPKLPEIQDLAIRARVFIHKSTIKDKVYLSGSEMINAHNERLEFLGDSILNSVMTLIIYNKFPDYSEGQLSTLRMNLVSNEQIKQWSIMYNFHEKLKTNFDLKDENSNFQNGKLKLYADVFEAYIGGLMEDDPRNNLPKIRKWLRKLAKPVIEEATRNQVALEKTDKLDMNAKRQLYSLIGYASLRLHYVTVKKPTAVDPNSIVECRVGDGTVLGTGVGRNIKIAGIRAAENALRDKKMLDFYAKQRAAIPRSESVLKDPSQKNKKRKFSDTS | soluble |
| MGSRTGSREEHSLQFLNLTKMTTTTASNLPWVEKYRPSKLDELVAHEQIVKTLTKFIENRTLPHLLFYGPPGTGKTTTVLAAARQMYSPTKMASMVLELNASDERGIDVVRNTIVNFAQTKGLQAFSTSSNTGTVPFKLVILDEADAMTKDAQNALRRLDKTDYEQNIIIHNVNIYFRVIEKYTDNVRFCIICNYLASIVPAIQSRCTRFRFAPLDQKLIVPRLEYIVETEQLKMTPDGKDALLIVSKGDMRTVINTLQSTAMSFDTVSENTVYQCIGQPTPKEMKEVVKTLLNDPSKKCMNTIQTKLFENGYALQDVITHLHDFVFTLDIPDEAMSAIITGLGEVEENLSTGCSNETQLAAVVAAFFEAKRLCVKEMKNLEIEDMEF | not soluble |
| MGSSHHHHHHGGTGENLYFQGGSGMKSVFITGGNRGIGLETARQMGKLGYYVIISCRDEEKAKAAIEKVSAEGVKADYVIMDVVDESSVAKAAAEVSKKVNGVLDALINNAGKAAPSGDMSRVNLDEMRRCYEVNVIGTVCVTNHFLEMVKKSSAGRIVNVGSIKGSCQLEVTALSHTPYNCSKAALNMYTVNLASSLKDTNVKVNCAHPGWVKTDMGGPQAPLEVTEGAETSVYLATLPADGPTGGFFHKRDRLPW | soluble |
| MGSSHHHHHHGGTGENLYFQGGSGSNRKKVAYFHDPDIGSYYYGAGHPMKPQRIRMTHSLIVSYNLYKYMEVYRPHKSDVNELTLFHDYEYIDFLSSISLENYREFTYQLKRFNVGEATDCPVFDGLFQFQQSCAGASIDGASKLNHHCADICVNWSGGLHHAKMSEASGFCYINDIVLGILELLKYHARVMYIDIDVHHGDGVEEAFYVTHRVMTVSFHKFGDYFPGTGDITDVGVNHGKYYSVNVPLNDGMTDDAFVDLFKVVIDKCVQTYRPGAIIIQCGADSLTGDRLGRFNLTIKGHARCVEHVRSYNIPLLVLGGGGYTIRNVSRCWAYETGVVLNKHHEMPDQISLNDYYDYYAPDFQLHLQPSNIPNYNSPEHLSRIKMKIAENLRHIEHAPGVQFSYVPPDFFNSDIDDESDKNQYELKDDSGGGRAPGTRAKEHSTTHHLRRKNYDDDFFDLSDRDQSIVPY | not soluble |
